Laboratory results taken from the supplement of paper PMC6757056.
± gives the standard deviation of the averaged measurements.

B1: library; a variant is named by its letters at N, in order (parent)
chain: GCUGUCACCGGUGUAUUACCCUAGUGGUCGACCGGUCUGAUGAGUCUNNNNNNAGACGAAACAGC

Assays:
[1] = variants of: B1; assay: normalized RNA/DNA level with ligand (relative to sTRSVctl = 100) (log10 (% of sTRSVctl)); ligand: hypoxanthine (xanthine aptamer); higher = less ribozyme self-cleavage, higher mRNA level; settings: ligand concentration (+) RNA-Seq: 5 mM, HEK293T, reporter: mCherry (pCS4076), ligand present: yes
How it was run: (§1)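 HEK293T cells were transfected with library plasmids carrying ribozyme switches linked to an mCherry reporter, or an eGFP reporter in some ligand experiments, at 4 µg per well of a 6-well plate, with any ligand added 1 h beforehand. After 72 h, total RNA was extracted with EDTA, reverse-transcribed, amplified, barcoded and sequenced. RNA level was defined as RNA reads over DNA reads, normalized to a spiked-in non-cleaving sequence or to the top-ranked sequences. That value was multiplied by 100 and converted to log10, the top set was 25 sequences, and only sequences with ≥100 DNA reads were retained.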

[2] = variants of: B1; assay: normalized RNA/DNA level without ligand (relative to sTRSVctl = 100) (log10 (% of sTRSVctl)); ligand: hypoxanthine (xanthine aptamer); higher = less ribozyme self-cleavage, higher mRNA level; settings: HEK293T, reporter: mCherry (pCS4076), ligand present: no
How it was run: as §1

Row | Variant | normalized RNA/DNA level with ligand (log10) [1] | normalized RNA/DNA level without ligand (log10) [2]
1 | GCUGUCACCGGUGUAUUACCCUAGUGGUCGACCGGUCUGAUGAGUCUUCGGCAAGACGAAACAGC [UCGGCA] | 1.99 ± 0.056 | 1.7 ± 0.098
2 | GCUGUCACCGGUGUAUUACCCUAGUGGUCGACCGGUCUGAUGAGUCUUCGCUUAGACGAAACAGC [UCGCUU] | 1.984 ± 0.0024 | 1.7 ± 0.035
3 | GCUGUCACCGGUGUAUUACCCUAGUGGUCGACCGGUCUGAUGAGUCUUCGCUAAGACGAAACAGC [UCGCUA] | 1.96 ± 0.037 | 1.725 ± 0.0084
4 | GCUGUCACCGGUGUAUUACCCUAGUGGUCGACCGGUCUGAUGAGUCUUCGCUGAGACGAAACAGC [UCGCUG] | 1.98 ± 0.069 | 1.803 ± 0.0034
5 | GCUGUCACCGGUGUAUUACCCUAGUGGUCGACCGGUCUGAUGAGUCUUCGCUCAGACGAAACAGC [UCGCUC] | 1.98 ± 0.049 | 2.109 ± 0.015
6 | GCUGUCACCGGUGUAUUACCCUAGUGGUCGACCGGUCUGAUGAGUCUGCGCUAAGACGAAACAGC [GCGCUA] | 1.88 ± 0.067 | 1.68 ± 0.031
7 | GCUGUCACCGGUGUAUUACCCUAGUGGUCGACCGGUCUGAUGAGUCUGCGCUUAGACGAAACAGC [GCGCUU] | 1.96 ± 0.065 | 1.76 ± 0.046
8 | GCUGUCACCGGUGUAUUACCCUAGUGGUCGACCGGUCUGAUGAGUCUGCGCUCAGACGAAACAGC [GCGCUC] | 1.919 ± 0.015 | 1.64 ± 0.052
9 | GCUGUCACCGGUGUAUUACCCUAGUGGUCGACCGGUCUGAUGAGUCUGCGCUGAGACGAAACAGC [GCGCUG] | 1.86 ± 0.028 | 1.36 ± 0.03
10 | GCUGUCACCGGUGUAUUACCCUAGUGGUCGACCGGUCUGAUGAGUCUUCGGAUAGACGAAACAGC [UCGGAU] | 1.86 ± 0.036 | 1.3978 ± 0.00098
11 | GCUGUCACCGGUGUAUUACCCUAGUGGUCGACCGGUCUGAUGAGUCUUCGGAAAGACGAAACAGC [UCGGAA] | 1.84 ± 0.043 | 1.31 ± 0.017
12 | GCUGUCACCGGUGUAUUACCCUAGUGGUCGACCGGUCUGAUGAGUCUUCGGACAGACGAAACAGC [UCGGAC] | 1.981 ± 0.002 | 1.877 ± 0.012
13 | GCUGUCACCGGUGUAUUACCCUAGUGGUCGACCGGUCUGAUGAGUCUACGCUCAGACGAAACAGC [ACGCUC] | 2.02 ± 0.048 | 1.908 ± 0.0022
14 | GCUGUCACCGGUGUAUUACCCUAGUGGUCGACCGGUCUGAUGAGUCUACGCUUAGACGAAACAGC [ACGCUU] | 1.907 ± 0.016 | 1.5 ± 0.022
15 | GCUGUCACCGGUGUAUUACCCUAGUGGUCGACCGGUCUGAUGAGUCUACGCUAAGACGAAACAGC [ACGCUA] | 1.948 ± 0.0038 | 1.69 ± 0.063
16 | GCUGUCACCGGUGUAUUACCCUAGUGGUCGACCGGUCUGAUGAGUCUCCGCUUAGACGAAACAGC [CCGCUU] | 1.96 ± 0.051 | 1.887 ± 0.0021
17 | GCUGUCACCGGUGUAUUACCCUAGUGGUCGACCGGUCUGAUGAGUCUCCGCUCAGACGAAACAGC [CCGCUC] | 2.005 ± 0.0034 | 1.963 ± 0.019
18 | GCUGUCACCGGUGUAUUACCCUAGUGGUCGACCGGUCUGAUGAGUCUGCGGCAAGACGAAACAGC [GCGGCA] | 1.94 ± 0.055 | 1.7 ± 0.052
19 | GCUGUCACCGGUGUAUUACCCUAGUGGUCGACCGGUCUGAUGAGUCUCCGGCAAGACGAAACAGC [CCGGCA] | 1.97 ± 0.03 | 1.895 ± 0.0097
20 | GCUGUCACCGGUGUAUUACCCUAGUGGUCGACCGGUCUGAUGAGUCUCCGGAUAGACGAAACAGC [CCGGAU] | 1.9742 ± 0.0018 | 1.777 ± 0.012
21 | GCUGUCACCGGUGUAUUACCCUAGUGGUCGACCGGUCUGAUGAGUCUACGGCAAGACGAAACAGC [ACGGCA] | 1.902 ± 0.019 | 1.702 ± 0.008
